Patent publication US20230151104A1 (REMD BIOTHERAPEUTICS, published 2023)
Where a chain is given by its changes, count along the chain named. Several values for one entry are separate records, joined by “and”; a condition that tells them apart may be missing. Equal entries are not always repeated.

B1: murine-human chimeric IgG1 derived from mAb 201D10A12C1 (A15) (antibody, V domains shown)
VH: EVQLQQSGPVLVRPGASVKMSCKASGYAFTDFHLNWVKQSHGKSLEWIGVINPYNGGTNYNQKFKDKATLTVDKSSSTAYMELNRLTSEDSAVYYCARYYASRYGYAMDYWGQGTSVTVSS
VL: DIVMTQAAPSVPVTPGESVSISCRSSKSLLHSNGNTYLYWFLQRPGQSPQLLIYRMSNLASGVPDRFSGSGSGTAFTLRISRVEAEDVGIYYCMQHVEYPLTFGAGTKLELKR
notes: also called Chimeric (VH/VL); 4 Chimeric (VH/VL)
B2: humanized IgG 2 (VH1/VL2) (antibody)
heavy: not shown
light: DIVMTQSPLSLPVTPGEPVSISCRSSKSLLHSNGNTYLYWFLQKPGQSPQLLIYRMSNLASGVPDRFSGSGSGTDFTLKISRVEAEDVGVYYCMQHVEYPLTFGGGTKLEIKRTVAAPSVFIFPPSDEQLKSGTASVVCLLNNFYPREAKVQWKVDNALQSGNSQESVTEQDSKDSTYSLSSTLTLSKADYEKHKVYACEVTHQGLSSPVTKSFNRGEC
notes: Full-length humanized IgG; also called H1/L2
B3: humanized IgG 1 (VH1/VL1) (antibody, V domains shown)
VH: QVQLVQSGAEVKKPGASVKVSCKASGYAFTDFHLNWVRQAPGQGLEWMGVINPYNGGTNYNQKFKDRVTMTRDTSISTAYMELSRLRSDDTAVYYCARYYASRYGYAMDYWGQGTLVTVSS
VL: DIVMTQSPLSLPVTPGEPASISCRSSKSLLHSNGNTYLYWYLQKPGQSPQLLIYRMSNLASGVPDRFSGSGSGTDFTLKISRVEAEDVGVYYCMQHVEYPLTFGGGTKLEIKR
notes: Full-length humanized IgG; also called H1/L1
B4: humanized IgG 3 (VH1/VL3) (antibody)
heavy: not shown
light: B2 light with P8A
notes: Full-length humanized IgG; also called H1/L3
B5: humanized antibody VH4/VL2 (antibody, V domains shown)
VH: B3 VH with V20M, A40S, P41H, M48I, M70L, R72V
VL: DIVMTQSPLSLPVTPGEPVSISCRSSKSLLHSNGNTYLYWFLQKPGQSPQLLIYRMSNLASGVPDRFSGSGSGTDFTLKISRVEAEDVGVYYCMQHVEYPLTFGGGTKLEIK
notes: Expressed as full-length IgG in Expi293F cells and tested as supernatant
B6: humanized antibody VH2/VL1 (antibody, V domains shown)
VH: B3 VH with A40S, M48I, M70L, R72V
VL: B5 VL with V19A, F41Y
notes: as for B5
B7: humanized antibody VH2/VL2 (antibody, V domains shown)
VH: B3 VH with A40S, M48I, M70L, R72V
VL: B5 VL
notes: as for B5
B8: humanized antibody VH2/VL3 (antibody, V domains shown)
VH: B3 VH with A40S, M48I, M70L, R72V
VL: B5 VL with P8A
notes: as for B5
B9: humanized antibody VH3/VL1 (antibody, V domains shown)
VH: B3 VH with A40S, P41H, M48I, M70L, R72V
VL: B5 VL with V19A, F41Y
notes: as for B5
B10: humanized antibody VH3/VL2 (antibody, V domains shown)
VH: B3 VH with A40S, P41H, M48I, M70L, R72V
VL: B5 VL
notes: as for B5
B11: humanized antibody VH3/VL3 (antibody, V domains shown)
VH: B3 VH with A40S, P41H, M48I, M70L, R72V
VL: B5 VL with P8A
notes: as for B5
B12: humanized antibody VH4/VL1 (antibody, V domains shown)
VH: B3 VH with V20M, A40S, P41H, M48I, M70L, R72V
VL: B5 VL with V19A, F41Y
notes: as for B5
B13: humanized antibody VH4/VL3 (antibody, V domains shown)
VH: B3 VH with V20M, A40S, P41H, M48I, M70L, R72V
VL: B5 VL with P8A
notes: as for B5
B14: humanized antibody VH5/VL1 (antibody, V domains shown)
VH: B3 VH with V20M, R38K, A40S, P41H, M48I, M70L, R72V
VL: B5 VL with V19A, F41Y
notes: as for B5
B15: humanized antibody VH5/VL2 (antibody, V domains shown)
VH: B3 VH with V20M, R38K, A40S, P41H, M48I, M70L, R72V
VL: B5 VL
notes: as for B5
B16: humanized antibody VH5/VL3 (antibody, V domains shown)
VH: B3 VH with V20M, R38K, A40S, P41H, M48I, M70L, R72V
VL: B5 VL with P8A
notes: as for B5
B17: humanized antibody VH6/VL1 (antibody, V domains shown)
VH: B3 VH with V20M, R38K, A40S, P41H, M48I, V68A, M70L, R72V, T91S
VL: B5 VL with V19A, F41Y
notes: as for B5
B18: humanized antibody VH6/VL2 (antibody, V domains shown)
VH: B3 VH with V20M, R38K, A40S, P41H, M48I, V68A, M70L, R72V, T91S
VL: B5 VL
notes: as for B5
B19: humanized antibody VH6/VL3 (antibody, V domains shown)
VH: B3 VH with V20M, R38K, A40S, P41H, M48I, V68A, M70L, R72V, T91S
VL: B5 VL with P8A
notes: as for B5
B20: murine mAb 132F3F3H11 ("A8") (antibody, V domains shown)
VH: DVQLVESGGGLVQPGGSRKLSCAASGFTFSSSGMHWVRQAPEKGLEWVAYISSGSSSIYYADTVKGRFTISRDNPKNTLFLQMTSLRSEDTAMYYCARPYYYGSIAMDYWGQGTSVTVSS
VL: DIKMTQSPSSMYASLGERVTITCKASQDINSYLSWFQQKPGKSPKTLIYRANRLVDGVPSRFSGSGSGQDYSLTISSLEYEDMGIYYCLQYDEFPFTFGSGTKLEIK
B21: murine mAb 201D10A12C1 ("A15") (antibody, V domains shown)
VH: B1 VH
VL: DIVMTQAAPSVPVTPGESVSISCRSSKSLLHSNGNTYLYWFLQRPGQSPQLLIYRMSNLASGVPDRFSGSGSGTAFTLRISRVEAEDVGIYYCMQHVEYPLTFGAGTKLELK
B22: murine mAb 201D10E9F2 ("A17") (antibody, V domains shown)
VH: B1 VH
VL: B21 VL

molecular target: T1, human CXCR4 (hCXCR4), on CXCR4-positive cell line "CXCR4 E4" (human, UniProt P61073-2 2-356); test: FACS binding confirmation with purified IgG on CXCR4-expressing cells
T1 construct: FACS target: 'Positive cells lines (CXCR4 E4)'; also called chemokine receptor 4; HuCXCR4
T1 sequence (P61073 other isoform, or with tags, fused parts or gaps): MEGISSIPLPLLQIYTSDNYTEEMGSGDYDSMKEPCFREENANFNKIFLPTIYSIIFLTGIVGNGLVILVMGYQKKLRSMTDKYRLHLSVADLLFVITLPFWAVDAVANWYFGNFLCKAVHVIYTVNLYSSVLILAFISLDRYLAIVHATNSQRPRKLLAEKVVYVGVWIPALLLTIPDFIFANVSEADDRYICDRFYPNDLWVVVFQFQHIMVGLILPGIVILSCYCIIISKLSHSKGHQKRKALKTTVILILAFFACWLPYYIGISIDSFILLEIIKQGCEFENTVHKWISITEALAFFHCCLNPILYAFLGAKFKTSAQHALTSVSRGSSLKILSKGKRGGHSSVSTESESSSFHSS

Row | EC50 [µg/mL] | Binder
1 | 1.8 | B1
2 | 1.72 | B2
3 | 1.6 | B3
4 | 2.35 | B4

molecular target: T1, human CXCR4 (hCXCR4), on CXCR4-positive …; test: FACS on CXCR4 E4 cells; serial dilution of Expi293F supernatant; anti-human IgG Alexa Fluor 647
Description: The DNA sequences encoding the chimeric antibody and humanized IgG heavy and light chains were synthesized and inserted into pCDNA3.4 vector to construct the expression plasmids of full-length IgGs. 18 humanized Abs were expressed in Expi293F cell culture, and then the cells were spun down. For affinity ranking, the supernatants were assayed by FACS against cell lines for the assessment of binding activity. Positive cells lines (CXCR4 E4) were cultured following the protocol and harvested by centrifugation. About 1×10⁵cells per well were washed with 1*PBS and incubated in a serial dilution of antibodies for 30 minutes at 4° C. After washing with PBS, secondary antibody [1 μg/ml Alexa Fluor® 647 AffiniPure Goat Anti-Human IgG (H+L)] was added to the cells and incubated in PBS for 30 minutes at 4° C. After washing with PBS, cells were analyzed for binding by using FACS Calibur (BD Bioscience, San Jose, Calif.) and Flowjo software. The antibodies were ranked by EC50.

Row | EC50 | Binder
5 | 1.99 µg/mL and 13.2 nM | B5
6 | 5.37 µg/mL and 35.8 nM | B6
7 | 4.82 µg/mL and 32.1 nM | B7
8 | 8.35 µg/mL and 55.7 nM | B8
9 | 4.18 µg/mL and 27.9 nM | B9
10 | 2.93 µg/mL and 19.5 nM | B10
11 | 2.82 µg/mL and 18.8 nM | B11
12 | 2.39 µg/mL and 16 nM | B12
13 | 1.97 µg/mL and 13.2 nM | B13
14 | 0.375 µg/mL and 2.5 nM | B14
15 | 1.61 µg/mL and 10.7 nM | B15
16 | 1.93 µg/mL and 12.8 nM | B16
17 | 1.45 µg/mL and 9.65 nM | B17
18 | 1.94 µg/mL and 13 nM | B18
19 | 2.86 µg/mL and 19.1 nM | B19
20 | 1.56 µg/mL and 10.4 nM | B1
21 | 2.19 µg/mL and 14.6 nM | B2
22 | 1.72 µg/mL and 11.5 nM | B3
23 | 2.27 µg/mL and 15.2 nM | B4

molecular target: tagged CXCR4 receptors stably expressed on recombinant CHO cells (human, UniProt P61072 1-352 (Pan troglodytes entry)); test: cell-based or functional assay
Sequence (P61072 other isoform, or with tags, fused parts or gaps): as the sequence (P61073 other isoform, or with tags, fused parts or gaps) above

Row | HuCXCR4 Binding IC50 (nM) (CXCR4 cAMP functional assay, antagonist mode against 5.0 nM SDF-1) | Binder
24 | 0.381 | B20
25 | 1.18 | B21
26 | 1.48 | B22
